Measurements taken from the DeepSol protein solubility set.

Test: soluble on expression in E. coli; label from the status in PepcDB or PDB records

| Sequence | soluble on expression in E. coli |
| --- | --- |
| MSLRITRLTVFHLDLPLAKPYWLSGGRLKFDRLDSTYLRIDTDEGVTGWGEGCPWGHSYLPAHGPGLRAGIATLAPHLLGLDPRSLDHVNRVMDLQLPGHSYVKSPIDMACWDILGQVAGLPLWQLLGGEAATPVPINSSISTGTPDQMLGLIAEAAAQGYRTHSAKIGGSDPAQDIARIEAISAGLPDGHRVTFDVNRAWTPAIAVEVLNSVRARDWIEQPCQTLDQCAHVARRVANPIMLDECLHEFSDHLAAWSRGACEGVKIKPNRVGGLTRARQIRDFGVSVGWQMHIEDVGGTALADTAALHLAASTPEANRLASWLGHAHLADDPIPGQGARNRDGLATPPSAPGLGVIPDPEALGRPVASYDEGHHHHHH | soluble |
| MHCPFCRHPDSRVIDSRETDEGQAIRRRRSCPECGRRFTTVETAVLAVVKRSGVTEPFSREKVISGVRRACQGRQVDDDALNLLAQQVEDSVRAAGSPEIPSHDVGLAILGPLRELDEVAYLRFASVYRSFSSADDFAREIEALRAHRNLSAHS | soluble |
| MLKFKNRIVEKRVKGAEKASFGGPVLLYRTLRKVTKLYKYITDKKSFPILVTSLFALFNPNSVLAADKYSNFEELKENESPLSYNILTTDVDRRVLILAPHGGGIEGGTSELARELSKSYSAYLFEGLRIPGASELHITSTNFDEPQALDLLSKHDLTISIHGYASSKKHTLVGGTDREKAAKITSLLTDAGFSAELLSEDSRLAGTNEQNIANKNSTGMSIQLEISTEQRREMFNTFTLAGRNGTQNQVFYDYIAVLTKFINENVYCMAGVAPLEHHHHHH | not soluble |
| MSEYRVNHEPVFMLASSPWRESSLWVEAFSRRYGRVALLARSARKRQSELRGVLVPFVPVSVSWYGSQELKTLHRAEWVGGWRQPQGRALFGGLYVNELVLKLTAREDPVPELYDALAEVMEAVCCKAAYIDDLRRFEWRLLNLLGVAPDLNRDGDGGTIAAGGTYLVRPETAVFPVGKGFAVPPHAAGVVAPGQSLIDLREGSFRTAESLQQALKITRLFIRHLLPEGLKSRQVLEQIRQFDRKETARETVPTSDGTASNAV | not soluble |
| MSLDTIAVVLKQPQQVELSRLSLTAPTDDDIVVDVAWSGVSTGTERLLWSGRMPQFPGMGYPLVPGYESVGEVVEAGSATDLKPGQMVFVPGAKCFGEVRGLFGASASRLVVPAKRVVPLDSKLGERGILIALAATAYHAIAARGATPPDCIVGHGVLGRLLARISIALGNPPPVVWEKNPIRSGGAEGYAVVDPASDERRDYRSIYDVSGDPKLLDTLISRIAATGEIVLAGFYSEPLSFSFPPAFMREARIRVAAEWQPPDIGATKALIESGKLSLDGLITHHQEAASAPDAYRIAFEDPACLKMVLNWRPSEGHHHHHH | soluble |
| GKPDGKIDYADAVFKGCSDPGYLLGLNNTFRYKNFDLNVYFYGQLDLLKSGSYKDYWIVGSGTMTGVNNLYRGYNMPTSAKEVWSHDNTSGKMPGYFQYMSNYGYGDYFLEKSWFIRCRNITLGYTLPVKSAKKLVSNVRIYADVNNLFTITPYDGLDVETDDSYWAYPNVRSFSIGLDITF | not soluble |
| MKFLLLLFPVLLLAKSPEKRSKVGIDEDNFLQLLEVEIARTLRSELSSDDDLQNLEGSSDSPEDDYLKKYDLILSSSTTSPKPITTTETTTRSTTTTTTTTTTTAAPSTTTSTVKITPKPLRSTPQCVPEKDCYKDSECPSGKCFGSELGLCDCNACITNKKCSSDLDCGGLRNGCDSNGNCDCVNAFHSHGYKLFVKVLLTFCHQTKCTKTSDNCYGLPCRVGKCKCFVGSLSVVTMCSRVLFVLLSTFTVLAGASVTCDLTQKPSTWAQVHAKNIFFNAYEPDNYFSLNGFCVNNDFMSHTLTYSSHVKLADSSVKVKTDVALNTNFDASLSNCGKDVSQVQWCQSHCQDKTLENVIVSSAVINGSLPLALAQQVFSTIGSPNDTSIASMQVDLNSQGVRIDYDYYDDFNFCSVYVKVKRPSMFPYALFITVQKIVGV | not soluble |
| MSLSQGALYLVPTPIGNLEDMTFRAIRMLKEADIIAAEDTRNTVKLLNHFEITTRMTSYHQFTKENKEDNIIQRMLDGEVVALVSDAGMPSISDPGYELVQSALNANIPVIPLPGANAALTALIASGLAPQPFYFYGFLPRQNKERTQAIEKLAAREETWILYESPHRLKETLKAIIKITGNDRKIVLCRELTKRFEEFLRGTVEDALNWAMDEEVRGEFCLIIEGNANPPLAEEQLWWQELDIKTHVSTVMEQENVSSKDAIKTVMKARNLPKREVYSAYHEIKEGHHHHHH | soluble |
| MGSDKIHHHHHHENLYFQGMQVIKQKLTATCAQLTGYLHQPDTNAHQTNLPAIIIVPGGSYTHIPVAQAESLAMAFAGHGYQAFYLEYTLLTDQQPLGLAPVLDLGRAVNLLRQHAAEWHIDPQQITPAGFSVGGHIVALYNDYWATRVATELNVTPAMLKPNNVVLGYPVISPLLGFPKDDATLATWTPTPNELAADQHVNSDNQPTFIWTTADDPIVPATNTLAYATALATAKIPYELHVFKHGPHGLALANAQTAWKPDANQPHVAHWLTLALEWLADNR | soluble |
| MGSDKIHHHHHHMKIVVAKNIGFCFGVERAIRTVEELLDEGKKVVTDGEIVHNKQVMEQLTKKGLKVSSEMTDGEVFVVRAHGIPKDRLEELKKIFPEVVDLTCPIVSQLFKTAQRYAKERKVIVFGKEDHPEMVALRGYAPAIVTKVPFKLEEKKVVFLSQTTSSLEEYKEFVAAMIRMNEFEEAVFLNTICPVTVNREREVEELSKICDLSIVVGGKHSSNTGKLFRIASKHSKTIWIESPDELPADVVKYGTVCVFSGTSTPNSLIENVVRKLKEMEGKRDGTI | not soluble |
| MRHFDASQPLRVAVLGTGFGSKVHIPALQHHSETTVQAVYHRQPDRAAAIAVQFGIPNAYSDLDQLLADPAIEAVTIASPPFLHYPMAWAALSAGKSVLLEKPTTLNVEEARALWKLASSQGLTVTLDFEYRFVPAWQYVAELLAEGVIGQPWLVKLDWLMSSRADASRPWNWYALRSQGGGALGALGSHSFDYLAWLFGPARRLQARLFTAIQERPDATTGELKPVDSDDTDLIQLELAEGVPCQISLSSVFRQGRGHWLEVYGDRGTLILGSSNQKDYVHGFQVWFASAGQALQELTVPQRLAFRQEFADGRLAPFLRVVDHWLADLRHGQMTAPSLKEGLYSQLLIDLCWQSQRSGEWQTVPELNRFLLEHHHHHH | not soluble |
| MFQLSVQDIHPGEKAGDKEEAIRQVAAALVQAGNVAEGYVNGMLAREQQTSTFLGNGIAIPHGTTDTRDQVLKTGVQVFQFPEGVTWGDGQVAYVAIGIAASSDEHLGLLRQLTHVLSDDSVAEQLKSATTAEELRALLMGEKQSEQLKLDNEMLTLDIVASDLLTLQALNAARLKEAGAVDATFVTKAINEQPLNLGQGIWLSDSAEGNLRSAIAVSRAANAFDVDGETAAMLVSVAMNDDQPIAVLKRLADLLLDNKADRLLKADAATLLALLTSDDAPTDDVLSAEFVVRNEHGLHARPGTMLVNTIKQFNSDITVTNLDGTGKPANGRSLMKVVALGVKKGHRLRFTAQGADAEQALKAIGDAIAAGLGEGA | soluble |
| MLGVCYYPEHWPKERWKEDARRMREAGLSHVRIGEFAWALLEPEPGRLEWGWLDEAIATLAAEGLKVVLGTPTATPPKWLVDRYPEILPVDREGRRRRFGGRRHYCFSSPVYREEARRIVTLLAERYGGLEAVAGFQTDNEYGCHDTVRCYCPRCQEAFRGWLEARYGTIEALNEAWGTAFWSQRYRSFAEVELPHLTVAEPNPSHLLDYYRFASDQVRAFNRLQVEILRAHAPGKFVTHNFMGFFTDLDAFALAQDLDFASWDSYPLGFTDLMPLPPEEKLRYARTGHPDVAAFHHDLYRGVGRGRFWVMEQQPGPVNWAPHNPSPAPGMVRLWTWEALAHGAEVVSYFRWRQAPFAQEQMHAGLHRPDSAPDQGFFEAKRVAEELAALALPPVAQAPVALVFDYEAAWIYEVQPQGAEWSYLGLVYLFYSALRRLGLDVDVVPPGASLRGYAFAVVPSLPIVREEALEAFREAEGPVLFGPRSGSKTETFQIPKELPPGPLQALLPLKVVRVESLPPGLLEVAEGALGRFPLGLWREWVEAPLKPLLTFQDGKGALYREGRYLYLAAWPSPELAGRLLSALAAEAGLKVLSLPEGLRLRRRGTWVFAFNYGPEAVEAPASEGARFLLGSRRVGPYDLAVWEEA | soluble |
| MKTAAYMIHCLTNMHVGKGDATYEVVDKCVQRDVTTGMPCIYSSSLKGALRQFFSKQGFAELNYVFGKDQSRDKKNNGNEKNEEEHSVGNFTFFQANLLAYPVQTTQEGATYILKTNKTLQDPIKELANLFSAPSNIEEMLPKETEKDLSNETLEQLPVIARNQLDNGKSENLWYEEVVPAESRFVFFVSYDDEEIFTKFDKIIQEKVIQIGANGSIGYGFCKIANVTNPFKK | soluble |
